According to patent US20260055183A1:

Molecular target: triggering receptor expressed on myeloid cells 1 (TREM-1), human, on monocytes / PBMCs of healthy donors (human) (UniProt Q9NP99)
Experiment: cell-based or functional assay

peptidoglycan-recognition-protein 1 (PGLYRP1), sequence (O75594 22-196 limits assumed): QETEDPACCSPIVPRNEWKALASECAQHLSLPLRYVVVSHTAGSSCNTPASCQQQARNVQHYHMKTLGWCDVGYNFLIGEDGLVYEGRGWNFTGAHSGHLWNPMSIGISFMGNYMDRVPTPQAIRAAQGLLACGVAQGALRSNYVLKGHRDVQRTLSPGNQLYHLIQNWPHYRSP
triggering receptor expressed on myeloid cells 1 (TREM-1), human, on monocytes / PBMCs of healthy donors (human), sequence (Q9NP99 21-234 limits assumed): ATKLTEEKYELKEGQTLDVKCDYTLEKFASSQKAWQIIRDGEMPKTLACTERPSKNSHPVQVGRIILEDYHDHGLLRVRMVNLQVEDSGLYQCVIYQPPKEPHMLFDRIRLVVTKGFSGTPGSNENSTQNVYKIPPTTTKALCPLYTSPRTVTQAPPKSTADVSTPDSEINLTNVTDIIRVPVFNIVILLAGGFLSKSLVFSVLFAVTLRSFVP

Log2FC P + L vs P, ACOT7 mRNA in monocytes (log2 fold change): 2.23
Log2FC P + L vs P, CD52 mRNA in monocytes (log2 fold change): 2.28
Log2FC P + L vs P, CD55 mRNA in monocytes (log2 fold change): 2.39
Log2FC P + L vs P, CDKN1A mRNA in monocytes (log2 fold change): 2.3
Log2FC P + L vs P, CHI3L1 mRNA in monocytes (log2 fold change): 5.62
Log2FC P + L vs P, CISH mRNA in monocytes (log2 fold change): 3.28
Log2FC P + L vs P, CLEC12A mRNA in monocytes (log2 fold change): 2.94
Log2FC P + L vs P, DHRS9 mRNA in monocytes (log2 fold change): 3.22
Log2FC P + L vs P, EHD1 mRNA in monocytes (log2 fold change): 3.37
Log2FC P + L vs P, FAM129A mRNA in monocytes (log2 fold change): 2.31
Log2FC P + L vs P, GALNT6 mRNA in monocytes (log2 fold change): 2.09
Log2FC P + L vs P, IFNLR1 mRNA in monocytes (log2 fold change): 3.07
Log2FC P + L vs P, MFSD12 mRNA in monocytes (log2 fold change): 3.07
Log2FC P + L vs P, MTMR11 mRNA in monocytes (log2 fold change): 2.58
Log2FC P + L vs P, NAMPT mRNA in monocytes (log2 fold change): 3.47
Log2FC P + L vs P, PIM2 mRNA in monocytes (log2 fold change): 2.71
Log2FC P + L vs P, PLK3 mRNA in monocytes (log2 fold change): 2.67
Log2FC P + L vs P, SLC27A3 mRNA in monocytes (log2 fold change): 2.74
Log2FC P + L vs P, STARD4 mRNA in monocytes (log2 fold change): 2.56
Log2Fc.P + L vs P, CCL1 mRNA in monocytes (log2 fold change): 8.39
Log2Fc.P + L vs P, CCL20 mRNA in monocytes (log2 fold change): 8.73
Log2Fc.P + L vs P, CXCL3 mRNA in monocytes (log2 fold change): 7.21
Log2Fc.P + L vs P, F3 mRNA in monocytes (log2 fold change): 7.55
Log2Fc.P + L vs P, IL6 mRNA in monocytes (log2 fold change): 9.16
Log2Fc.P + L vs P, IL23A mRNA in monocytes (log2 fold change): 6.96
Log2Fc.P + L vs P, IL24 mRNA in monocytes (log2 fold change): 6.66
Log2Fc.P + L vs P, IL36G mRNA in monocytes (log2 fold change): 7.91
Log2Fc.P + L vs P, ILIA (Interleukin 1, alpha) mRNA in monocytes (log2 fold change): 6.86
Log2Fc.P + L vs P, ILIRN (Interleukin 1 receptor antagonist) mRNA in monocytes (log2 fold change): 7.28
Log2Fc.P + L vs P, INHBA mRNA in monocytes (log2 fold change): 8.04
Log2Fc.P + L vs P, MMP1 mRNA in monocytes (log2 fold change): 9.31
Log2Fc.P + L vs P, MMP7 mRNA in monocytes (log2 fold change): 8.32
Log2Fc.P + L vs P, MMP10 mRNA in monocytes (log2 fold change): 8.47
Log2Fc.P + L vs P, OCSTAMP mRNA in monocytes (log2 fold change): 7.62
Log2Fc.P + L vs P, PTGS2 mRNA in monocytes (log2 fold change): 8.32
Log2Fc.P + L vs P, RGS16 mRNA in monocytes (log2 fold change): 7.52
Log2Fc.P + L vs P, SCG5 mRNA in monocytes (log2 fold change): 8.09
Log2Fc.P + L vs P, TFPI2 mRNA in monocytes (log2 fold change): 7.57
Log2Fc.P + L vs P, TNFSF15 mRNA in monocytes (log2 fold change): 8.65
Substance: peptidoglycan-recognition-protein 1 (PGLYRP1) (from UniProt O75594 22-196) (ligand)
